B1: pGBTE2Fb 1-127: GAL4 DNA-binding domain fusion of AtE2Fb amino acids 1-127 (other)
chain: MKLLSSIEQACDICRLKKLKCSKEKPKCAKCLKNNWECRYSPKTKRSPLTRAHLTEVESRLERLEQLFLLIFPREDLDMILKMDSLQDIKALLTGLFVQDNVNKDAVTDRLASVETDMPLTLRQHRISATSSSEESSNKGQRQLTVSMSEEVPQQFPSSKRQLHPSLSSMKPPLVAPGEYHRFDAAETRGGGAVADQVVSDAIVIKSTLKRKTDLVNQIVEVNELNTGVLQTPVSGKGGKAKKTSRSAKSNKSGTLASGSNAGSPGNNFAQAGT
B2: pGBTE2Fa226-356: GAL4 DNA-binding domain fusion of AtE2Fa amino acids 226-356 (other)
chain: MKLLSSIEQACDICRLKKLKCSKEKPKCAKCLKNNWECRYSPKTKRSPLTRAHLTEVESRLERLEQLFLLIFPREDLDMILKMDSLQDIKALLTGLFVQDNVNKDAVTDRLASVETDMPLTLRQHRISATSSSEESSNKGQRQLTVSNRILWKGVDACPGDEDADVSVLQLQAEIENLALEEQALDNQIRQTEERLRDLSENEKNQKWLFVTEEDIKSLPGFQNQTLIAVKAPHGTTLEVPDPDEAADHPQRRYRIILRSTMGPIDVYLVSEFEGKFE
notes: also called E2F5 dimerisation domain; E2Fa (=E2F5) dimerization domain
B3: GAL4 transactivation domain fusion of AtE2Fa 226-356 (prey of Table V) (other, not shown: large carriers)
chain: NRILWKGVDACPGDEDADVSVLQLQAEIENLALEEQALDNQIRQTEERLRDLSENEKNQKWLFVTEEDIKSLPGFQNQTLIAVKAPHGTTLEVPDPDEAADHPQRRYRIILRSTMGPIDVYLVSEFEGKFE
notes: its construction is not described
B4: c-myc-tagged AtDPa 172-292, in vitro translated (other)
chain: EQKLISEEDLEQKLISEEDLSLESLMSRNQEMVVKTQGPAEGFTLPFILLETNPHAVVEIEISEDMQLVHLDFNSTPFSVHDDAYILKLMQEQKQEQNRVSSSSSTHHQSQHSSAHSSSSSCIASGTSGPVCWNSGSIDTR
notes: also called c-myc-AtDPa 172-292
B5: GAL4 transactivation domain fusion of AtDPb 1-385 (prey in pAD-GAL424) (other, not shown: large carriers)
chain: MTTTGSNSNHNHHESNNNNNNPSTRSWGTAVSGQSVSTSGSMGSPSSRSEQTITVVTSTSDTTFQRLNNLDIQGDDAGSQGASGVKKKKRGQRAAGPDKTGRGLRQFSMKVCEKVESKGRTTYNEVADELVAEFALPNNDGTSPDQQQYDEKNIRRRVYDALNVLMAMDIISKDKKEIQWRGLPRTSLSDIEELKNERLSLRNRIEKKTAYSQELEEQYVGLQNLIQRNEHLYSSGNAPSGGVALPFILVQTRPHATVEVEISEDMQLVHFDFNSTPFELHDDNFVLKTMKFCDQPPQQPNGRNNSQLVCHNFTPENPNKGPSTGPTPQLDMYETHLQSQQHQQHSQLQIIPMPETNNVTSSADTAPVKSPSLPGIMNSSMKPEN
notes: also called full-length AtDPb prey
B6: c-myc-tagged AtDPa 121-213, in vitro translated (other)
chain: EQKLISEEDLEQKLISEEDLIIARDKKEIRWKGLPITCKKDVEEVKMDRNKVMSSVQKKAAFLKELREKVSSLESLMSRNQEMVVKTQGPAEGFTLPFILLETNPHAVVEIEI
notes: also called c-myc-AtDPa 121-213; predicted dimerization domain of the AtDPa

Experiments:
[1] = target: B5; experiment: yeast two-hybrid, growth on His- minimal medium; legend: -, no interaction
[2] = target: T1, GAL4 transactivation domain fusion of AtDPa 1-292 (prey in pAD-GAL424) (Arabidopsis thaliana, UniProt Q9FNY3 1-292); experiment: as above
T1 construct: also called full-length AtDPa prey
T1 sequence: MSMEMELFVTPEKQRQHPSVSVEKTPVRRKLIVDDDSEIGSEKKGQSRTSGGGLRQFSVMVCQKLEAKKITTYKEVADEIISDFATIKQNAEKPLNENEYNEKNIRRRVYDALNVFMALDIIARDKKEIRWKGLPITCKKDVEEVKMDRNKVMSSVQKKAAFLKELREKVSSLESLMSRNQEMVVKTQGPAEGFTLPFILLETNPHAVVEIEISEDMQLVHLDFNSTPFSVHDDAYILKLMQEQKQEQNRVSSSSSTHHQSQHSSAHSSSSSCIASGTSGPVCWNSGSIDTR

[3] = target: T2, CCP16, two-hybrid prey clone E2F5BBC1 (Arabidopsis thaliana, UniProt Q9FNY3 1-292); experiment: yeast two-hybrid library screen (GAL4, His prototrophy in HF7c); prey clone isolated with this bait
T2 construct: partial protein read from the clone; also called DPa; AtDPa
T2 sequence: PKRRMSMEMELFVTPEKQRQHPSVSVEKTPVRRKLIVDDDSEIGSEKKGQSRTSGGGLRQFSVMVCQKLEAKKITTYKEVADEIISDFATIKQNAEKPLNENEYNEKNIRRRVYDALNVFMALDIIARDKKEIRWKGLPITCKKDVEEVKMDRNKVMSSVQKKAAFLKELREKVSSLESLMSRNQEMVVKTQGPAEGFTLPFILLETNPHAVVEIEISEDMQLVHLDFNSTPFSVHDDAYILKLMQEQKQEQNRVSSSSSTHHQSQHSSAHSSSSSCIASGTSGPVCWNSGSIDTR
Procedure: For library screening, vectors and strains (HF7c) were provided with the Matchmaker two-hybrid system (Clontech). The dimerization and DNA-binding domains of the AtE2Fa (amino acids 226-356; SEQ ID NO:205) were amplified by polymerase chain reaction (PCR) and subcloned in-frame with the GAL4 DNA-binding domain of pGBT9 (Clontech) to create the bait plasmid pGBTE2Fa226-356. Screens were performed as described previously (De Veylder et al. 1999; Planta 208, 453-462). A second library screening was performed with the AtE2Fb construct (pGBTE2Fb-Rb) lacking the Rb-binding domain (amino acids 1-385; SEQ ID-NO:206). Plasmids from interacting clones were isolated and sequenced.

[4] = target: B5; experiment: yeast two-hybrid, growth on His- minimal medium; legend: +, positive interaction
Procedure: (§1) Different combinations between bait (pGBTE2Fa226-356, pGBTE2Fb-Rb, or pGBTE2Fb 1-127, SEQ ID NO:207) and prey constructs were transformed into yeast cells and assayed for their ability to grow on His⁻ minimal media after 3 days of incubation at 30° C. Bait plasmids co-transformed with empty pAD-GAL424 and prey plasmids co-transformed with empty pGBT9 were assessed along as controls for the specificity of the interaction.
(§2) Different combinations between AtE2Fs bait and AtDPs prey constructs were tested for growth on His minimal media. −, no interaction; +, positive interaction; NT, not tested.

[5] = target: T1, GAL4 transactivation domain fusion of …; experiment: as above
Procedure: as §1, §2

[6] = target: T3, empty pGBT9 (GAL4 DNA-binding domain alone) (UniProt P04386 1-147); experiment: yeast two-hybrid, growth on His- minimal medium; empty bait vector control; legend: -, no interaction
T3 construct: empty bait vector, control for specificity; also called pBGT9
Procedure: as §1, §2

[7] = target: B2; experiment: yeast two-hybrid, growth on His- minimal medium; legend: -, no interaction
[8] = target: B1; experiment: as above
[9] = target: T4, pGBTE2Fb-Rb: GAL4 DNA-binding domain fusion of AtE2Fb amino acids 1-385 (lacking the Rb-binding domain) (Arabidopsis); experiment: as above
T4 construct: also called E2F3 N-terminal; E2Fb (=E2F3) N-terminal domain

[10] = target: T5, HA-tagged wild-type AtE2Fb, in vitro translated (Arabidopsis, UniProt Q9FV71 1-469); experiment: co-immunoprecipitation (anti-HA and anti-c-myc) of in vitro co-translated tagged proteins, SDS-PAGE autoradiography
T5 construct: wild-type (whole) protein; also called HA-AtE2Fb; E2F3
Procedure: (§3) In vitro transcription and translation experiments were performed using the TNT T7-coupled wheat germ extract kit (Promega) primed with appropriate plasmids for 90 min at 30° C. For immunoprecipitation, 10 μl of the total in vitro translated extract (50 μl) was diluted at 1:5 in Nonidet P40 buffer (50 mM Tris, pH 7.4, 150 mM NaCl, 1% Nonidet P40, 1 mM phenylmethylsulfonyl fluoride, 10 μg/ml leupeptin/aprotinin/pepstatin) and incubated for 2 h at 4° C. with anti-c-myc (9E10; BabCo) or anti-HA (16B12; BabCo) antibodies. Protein-A-Sepharose (40 μl 25% (v/v)) was added and incubated for 1 h at 4° C., then the beads were washed four times with Nonidet P40 buffer. Immune complexes were eluted with 10 μl […] sodium dodecyl sulfate (SDS) sample buffer and analyzed by 10% or 15% SDS-PAGE and by autoradiography.
(§4) Similar results were obtained by two-hybrid analysis (see Table 5 of Example 12). To test whether the structural requirements for heterodimerization of the AtDPs were similar to those of their animal homologs, several deletion mutants of AtDPa and AtDPb were constructed (for a schematic illustration, see FIGS. 52 and 53), tagged with the c-myc epitope (FIGS. 54 and 55, panels A). The interactions between the mutant AtDPs and AtE2Fb were analyzed in immunoprecipitation experiments with the specific anti-HA or anti-c-myc antibodies ([…], panels B and C, respectively). […]

[11] = target: T4, pGBTE2Fb-Rb: GAL4 DNA-binding domain …; experiment: yeast two-hybrid, growth on His- minimal medium; legend: +, positive interaction
Procedure: as §1, §2

[12] = target: T6, pGBT DPa 1-292: GAL4 DNA-binding domain fusion of AtDPa 1-292 (Arabidopsis thaliana); experiment: yeast two-hybrid, growth on His- minimal medium; legend: -, no interaction
T6 construct: its construction is not described

[13] = target: T7, pGBT DPb 1-385: GAL4 DNA-binding domain fusion of AtDPb 1-385 (Arabidopsis thaliana); experiment: as above
T7 construct: its construction is not described

[14] = target: T5, HA-tagged wild-type AtE2Fb, in vitro …; experiment: co-immunoprecipitation (anti-HA) of in vitro co-translated tagged proteins, SDS-PAGE autoradiography
Procedure: as §3, §4

T5 sequence (Q9FV71 1-469, tags or fused parts left off): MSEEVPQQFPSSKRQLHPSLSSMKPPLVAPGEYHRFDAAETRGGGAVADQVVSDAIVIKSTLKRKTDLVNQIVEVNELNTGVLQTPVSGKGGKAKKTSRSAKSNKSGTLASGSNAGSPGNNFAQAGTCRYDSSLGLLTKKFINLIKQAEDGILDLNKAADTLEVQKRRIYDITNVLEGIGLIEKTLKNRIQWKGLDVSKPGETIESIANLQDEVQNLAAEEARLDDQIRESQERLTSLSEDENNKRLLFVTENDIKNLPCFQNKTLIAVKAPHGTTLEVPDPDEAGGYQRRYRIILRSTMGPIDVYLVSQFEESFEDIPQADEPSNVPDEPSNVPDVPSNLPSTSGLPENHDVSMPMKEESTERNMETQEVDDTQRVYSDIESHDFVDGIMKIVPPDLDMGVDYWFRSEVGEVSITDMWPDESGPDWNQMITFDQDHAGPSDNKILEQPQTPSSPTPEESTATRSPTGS

What does the source list for B1?
binding result [1]: no binding; binding result [2]: no binding

Does B2 bind [3]?
Result: binds

Does B2 bind [4]?
Result: binds

Does B2 bind [5]?
Result: binds

Which results are given for B3?
binding result [6]: no binding; binding result [7]: no binding; binding result [8]: no binding; binding result [9]: no binding

Does B4 bind [10]?
Result: no binding

Does B5 bind [11]?
Result: binds

Does B5 bind [12]?
Result: no binding

Does B5 bind [13]?
Result: no binding

Does B6 bind [14]?
Result: no binding

From patent publication US20080207449A1 (CROPDESIGN N V, published 2008)
